Reference: patent publication US20220281980A1 (Bristol-Myers Squibb, published 2022)
Each block holds one binder with its values, some of them ahead of it.

How the values were obtained:
[1] = target: T1, human MICA/B endogenously expressed on SW480 cells (human, UniProt Q29983 24-383); assay: Scatchard analysis, 125I-MICA.36 on SW480 cells; SW480 cells (FIG. 7G)
T1 construct: whole, on cells
T1 sequence (looked up): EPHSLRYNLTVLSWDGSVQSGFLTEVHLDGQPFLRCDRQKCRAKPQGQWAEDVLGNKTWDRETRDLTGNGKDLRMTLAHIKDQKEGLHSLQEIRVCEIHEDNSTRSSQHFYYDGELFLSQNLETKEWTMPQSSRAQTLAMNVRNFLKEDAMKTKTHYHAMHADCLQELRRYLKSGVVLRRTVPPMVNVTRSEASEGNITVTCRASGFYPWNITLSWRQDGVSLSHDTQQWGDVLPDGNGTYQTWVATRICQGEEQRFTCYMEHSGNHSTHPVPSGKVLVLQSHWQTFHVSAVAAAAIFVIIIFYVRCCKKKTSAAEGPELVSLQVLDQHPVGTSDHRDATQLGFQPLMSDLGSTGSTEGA
Experimental: (§1) Nonspecific binding was determined by binding in the presence of a titration of a 100 fold molar excess of unlabeled antibody and was subtracted from total counts per minute (CPM) to calculate specific binding. A linear standard curve of ¹²⁵I-MICA.36 concentration versus CPM was used to extrapolate specific activity, maximal nM bound ¹²⁵I-MICA.36 and thereby calculate receptor number per cell.
(§2) Specific activity of the iodinated MICA.36 was determined by plotting antibody titrations against the associated CPMs in a standard curve (FIG. 7A). The specific activity was calculated to be 164,214 CPM in 1 nM of ¹²⁵I-MICA.36. The number of receptors per cell was calculated by the following equation: (Bmax)×(Avogadro's number)×(Assay Volume)/# of cells per well.

[2] = target: T2, human MICA/B endogenously expressed on 786-O cells (MICA allele *008) (human, UniProt Q29983 24-331); assay: saturation binding of 125I-labelled antibody on 786-O cells, 50,000 cells/well (Scatchard analysis); unit from the x axis 'nM Antibody'
T2 construct: it speaks of MICA/B, so MICB may be present as well; also called 786-0
T2 chain: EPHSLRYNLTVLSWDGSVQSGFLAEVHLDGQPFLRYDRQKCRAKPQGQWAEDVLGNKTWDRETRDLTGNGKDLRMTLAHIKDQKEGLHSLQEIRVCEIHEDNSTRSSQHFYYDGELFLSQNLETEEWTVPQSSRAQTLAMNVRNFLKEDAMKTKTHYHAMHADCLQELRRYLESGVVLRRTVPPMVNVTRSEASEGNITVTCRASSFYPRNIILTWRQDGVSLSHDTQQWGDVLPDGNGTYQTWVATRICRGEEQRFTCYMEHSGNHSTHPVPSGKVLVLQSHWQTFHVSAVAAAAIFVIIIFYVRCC
Experimental: as §1, §2

[3] = target: T3, cynomolgus monkey MICA/B clone #6 expressed on CHO cells (cynomolgus monkey); assay: saturation binding of 125I-labelled antibody on CHO-MICA Cyno #6 cells, 25K per well; fit of total binding, non-specific binding not subtracted
T3 construct: whole, on cells; also called cyno#6; CHO-cyno MICA clone #6
Experimental: as §1, §2

[4] = target: T4, human MICB expressed on transduced cells (human, UniProt Q29980 23-382); assay: saturation binding of 125I-labelled antibody on CHO-MICB cells, 12500 per well (Scatchard analysis); x axis 'Ab' carries no unit, nM taken from paragraph 587
T4 construct: also called MICB*005
T4 chain: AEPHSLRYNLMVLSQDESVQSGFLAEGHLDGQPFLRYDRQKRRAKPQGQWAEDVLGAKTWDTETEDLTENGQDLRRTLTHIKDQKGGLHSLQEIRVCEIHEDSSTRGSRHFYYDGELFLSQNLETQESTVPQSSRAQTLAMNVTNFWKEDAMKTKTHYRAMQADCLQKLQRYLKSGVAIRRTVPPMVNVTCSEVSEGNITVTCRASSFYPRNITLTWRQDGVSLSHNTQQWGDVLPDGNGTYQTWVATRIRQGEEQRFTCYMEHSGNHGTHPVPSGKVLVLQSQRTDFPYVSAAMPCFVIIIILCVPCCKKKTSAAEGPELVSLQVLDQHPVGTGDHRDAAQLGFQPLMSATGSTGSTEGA
Experimental: as §1, §2

[5] = target: T5, cynomolgus monkey MICA/B clone #4 expressed on CHO cells (cynomolgus monkey); assay: saturation binding of 125I-labelled antibody on CHO-MICA Cyno #4 cells, 25K per well (Scatchard analysis); unit from the x axis 'nM Radioligand'; curve not saturated at 20 nM
T5 construct: whole, on cells; also called cyno#4; CHO-cyno MICA clone #4
Experimental: as §1, §2

[6] = target: T5, cynomolgus monkey MICA/B clone #4 …; assay: flow cytometry (GMFI, FACSCalibur), CHO cells with cyno MICA #4; unit from the x axis; curve from about 13000 at 0.1 ug/ml to about 94500 GMFI at 40 ug/ml

Kd [1]: ~0.4 nM | Kd [2]: 0.356 nM | Kd of the total-binding curve [3]: 8.27 nM | Kd [4]: 1.36 nM | Kd [5]: 11 nM
B1: MICA.36 (antibody, V domains shown)
VH: QVQLVESGGGVVQPGRSLRLSCAASGFTFSNYAMHWVRQAPGEGLEWVALIWYDGSNKFYGDSVKGRFTISRDNSKNTLYLQMNSLSAEDTAVYYCAREGSGHYWGQGTLVTVSS
VL: AIQLTQSPSSLSASVGDRVTITCRASQGISSALAWYQQKPGKVPKSLIYDASSLESGVPSRFSGSGSGTDFTLTISSLQPEDFATYYCQQFNSYPITFGQGTRLEIK
notes: it says that the name implies no specific constant region; Radioiodinated in the Scatchard assay; also called MICA.36 antibody

EC50 [6]: 0.161 µg/mL
B2: 19G6 (antibody, V domains shown)
VH: B1 VH
VL: B1 VL
notes: Hybridoma antibody from human IgG transgenic mice, parent of MICA.36; also called 19G6 mAb; hybridoma 19G6
